Test results as given in patent US20260209291A1 (KAMINO, published 2026).

Experiments:
activin A = target: T1, activin A (human, UniProt P08476 311-426); assay: cell-based or functional assay
T1 sequence: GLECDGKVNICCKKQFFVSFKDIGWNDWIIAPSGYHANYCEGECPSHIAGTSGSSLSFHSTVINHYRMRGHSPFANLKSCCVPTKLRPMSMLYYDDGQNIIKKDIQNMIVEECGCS

[1] = target: TNFα (Tumor Necrosis Factor alpha) (UniProt P01375 77-233); assay: SPR (Biacore 3000, 25 °C): compound captured to about 1,000 RU on a CM5 chip with the mouse antibody capture kit, TNFα injected for 120 s, 300 s dissociation; negative control
Chain of TNFα (Tumor Necrosis Factor alpha) (P01375 77-233 limits assumed): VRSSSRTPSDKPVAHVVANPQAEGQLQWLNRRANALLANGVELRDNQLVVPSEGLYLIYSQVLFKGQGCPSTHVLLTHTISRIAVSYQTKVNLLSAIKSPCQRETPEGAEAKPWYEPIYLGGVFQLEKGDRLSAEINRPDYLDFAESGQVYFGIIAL
Procedure: (§1) Surface plasmon resonance (SPR) experiments were carried out on a Biacore 3000 (Cytiva). A CM5 chip for capture of the compounds was prepared according to the instructions of the mouse antibody capture kit (Cytiva, #BR100838). VGFR(½)-mFc-FSD1, TNFR2-mFc-FSD1, VGFR(½)/FST291-mFc, TNFR2/FST291-mFc, VGFR(½)-hFc (Aflibercept), TNFR2-hFc (Etanercept), and FST315dHBS-mFc (SEQ ID NO: 30, SEQ ID NO: 31) were captured to approximately 1,000 RU (Resonance Units). TNFα (R&D Systems, #210-TA-005,) or VEGF (R&D Systems, #293-VE-010) were then injected for 120 s followed by a 300 s dissociation phase. At the end of each binding cycle, non-covalently attached molecules were removed from both surfaces by a 180 s regeneration with 10 mM glycine, pH 1.7. All proteins were diluted in running buffer ([…], pH 7.5, […], 2 mM CaCl₂) and 0.05% Tween 20). A flow rate of 30 μl/min was used in all steps of the experiments. Binding analysis was performed at 25° C., and data were collected at a rate of 1 Hz. Using the BIAevaluation 4.1.1 software (Cytiva), recorded signals were referenced; the signal from the in-line reference flow cell was subtracted as was the signal from a blank run (0 nM analyte).

myostatin = target: T2, myostatin (Homo sapiens (Human), UniProt O14793 267-375); assay: cell-based or functional assay
T2 sequence: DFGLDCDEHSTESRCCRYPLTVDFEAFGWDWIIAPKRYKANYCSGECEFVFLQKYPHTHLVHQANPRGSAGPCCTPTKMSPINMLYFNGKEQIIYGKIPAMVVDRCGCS

[2] = target: T3, GDF11 (Growth Differentiation Factor 11) (Homo sapiens (Human), UniProt O95390 299-407); assay: cell-based or functional assay
T3 sequence: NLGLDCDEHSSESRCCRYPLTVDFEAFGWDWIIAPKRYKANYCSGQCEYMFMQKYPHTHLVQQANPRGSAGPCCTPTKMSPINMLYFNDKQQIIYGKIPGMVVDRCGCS

[3] = target: VEGF (Vascular Endothelial Growth Factor) (UniProt P15692-4 27-191); assay: SPR (Biacore 3000, 25 °C): compound captured to about 1,000 RU on a CM5 chip with the mouse antibody capture kit, VEGF injected for 120 s, 300 s dissociation; negative control
Chain of VEGF (Vascular Endothelial Growth Factor) (P15692 other isoform, or with tags, fused parts or gaps limits assumed): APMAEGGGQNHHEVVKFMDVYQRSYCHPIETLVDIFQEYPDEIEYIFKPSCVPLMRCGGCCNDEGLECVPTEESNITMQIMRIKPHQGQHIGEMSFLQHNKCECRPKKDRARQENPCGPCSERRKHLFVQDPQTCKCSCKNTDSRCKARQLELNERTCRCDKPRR
Procedure: as §1

[4] = target: T4, vimentin (endogenous, in HEK293 cells) (human (HEK293 cells), UniProt P08670 2-466); assay: confocal imaging of adherent HEK293 cells after 18 hours with 1 µM ATTO 488 labelled compound; the filing reads the filaments as vimentin; no vimentin co-stain on the sheet
T4 construct: whole, on cells; Intracellular filament protein, inside the cells and not on their surface
T4 sequence (P08670 2-466): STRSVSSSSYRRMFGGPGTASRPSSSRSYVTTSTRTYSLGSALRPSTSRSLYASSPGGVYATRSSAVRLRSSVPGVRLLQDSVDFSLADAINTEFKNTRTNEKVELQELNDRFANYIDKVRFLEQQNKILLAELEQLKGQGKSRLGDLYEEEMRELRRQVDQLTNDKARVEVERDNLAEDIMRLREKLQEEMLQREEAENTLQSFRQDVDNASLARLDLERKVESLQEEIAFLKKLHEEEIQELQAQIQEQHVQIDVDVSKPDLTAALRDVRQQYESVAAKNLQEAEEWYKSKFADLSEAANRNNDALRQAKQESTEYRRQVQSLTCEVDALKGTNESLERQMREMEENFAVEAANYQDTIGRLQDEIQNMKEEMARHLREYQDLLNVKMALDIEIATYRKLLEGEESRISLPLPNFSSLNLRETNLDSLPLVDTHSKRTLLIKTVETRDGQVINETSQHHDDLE
Procedure: (§2) After labeling, compound concentration was determined using the Pierce Coomassie (Bradford) Protein Assay Kit (Thermo Scientific, #23200).
Briefly, HEK293 cells were seeded on a cover slip glass (Thorlabs, #CG15NH) treated with poly-D-lysine (ThermoFisher, #A3890401) to promote adhesion. Cells were seeded in DMEM (ThermoFisher, #11995073) supplemented with 10% fetal bovine serum (FBS). After 24 hours, cells were washed with PBS and compounds (1 μM) were added in 100% DMEM without FBS. A control sample using 100% DMEM without added compound was also included. After 3 hours and 18 hours of incubation, cells were washed 3 times with PBS. […] Cells were then washed 3 times with PBS and fixed using 4% formalin for 30 minutes. Cover slips were mounted using ProLong Glass Antifade Mountant (ThermoFisher, #P36980). Confocal imaging was conducted using a Zeiss LSM800 laser scanning confocal microscope (Carl Zeiss Microscopy GmbH, Oberkochen, Germany) equipped with 2 GaAsP and one Airyscan detector and Zen Blue Edition software (Carl Zeiss Microscopy GmbH, version 2.5). Confocal images were taken with the PlanApo x63 Oil NA 1.4 objective. […] Lysotracker Red DND-99 was excited using a 561 nm diode laser at 2.60% (both 3-hour and 18-hour samples) and detected at wavelengths 575-700 nm. For each sample, a Z-stack was recorded with an interval of 0.270 μm (3-hour samples) or 0.170 μm (18-hour samples). […]

[5] = target: T5, vimentin (endogenous, in mouse gastrocnemius muscle connective tissue cells) (mouse, UniProt P20152 2-466); assay: confocal imaging of sections of mouse gastrocnemius muscle 18 hours after intramuscular injection of 8 µg ATTO 488 labelled compound; the filing reads the filaments as vimentin; no vimentin co-stain on the sheet
T5 construct: whole, on cells; Intracellular filament protein, inside the cells and not on their surface
T5 sequence (P20152 2-466): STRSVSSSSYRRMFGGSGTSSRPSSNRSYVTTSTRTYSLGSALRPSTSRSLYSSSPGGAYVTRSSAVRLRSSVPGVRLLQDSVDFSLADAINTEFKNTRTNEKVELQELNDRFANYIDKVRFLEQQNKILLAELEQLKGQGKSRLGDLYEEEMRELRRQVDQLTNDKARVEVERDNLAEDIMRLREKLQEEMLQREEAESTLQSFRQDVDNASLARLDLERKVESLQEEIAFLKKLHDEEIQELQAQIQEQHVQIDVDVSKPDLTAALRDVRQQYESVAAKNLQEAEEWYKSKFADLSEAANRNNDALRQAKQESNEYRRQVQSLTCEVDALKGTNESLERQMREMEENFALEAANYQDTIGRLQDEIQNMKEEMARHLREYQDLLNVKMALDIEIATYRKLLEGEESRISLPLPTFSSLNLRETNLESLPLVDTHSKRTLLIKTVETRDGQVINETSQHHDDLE
Procedure: as §2
Two 12-week-old female BALB/c mice were allocated for injection with either anti-vimentin-nanobody-FSD1 (type 1 compound, n=1) or anti-vimentin-nanobody (n=1). During anaesthesia, the right hind limb was shaved to expose the calf muscles. A single dose of 8 μg, fluorescently labeled compound was administered intramuscularly in a volume of 5 μl in the gastrocnemius muscle. Mice received a subcutaneous injection of pain relief (Carprofen 5 mg/kg) to counter any pain resulting from tension in the muscle. Eighteen hours after injection, the gastrocnemius muscle was dissected and immersion-fixed in 4% formaldehyde. The gastrocnemius muscle was ethanol dehydrated, embedded in paraffin, and sectioned at 4 μm thickness using a microtome. Sections were left unstained and mounted with DAPI containing mountant (#P36962, ProLong Diamond Antifade Mountant with DAPI) on microscope slides. […] DAPI was excited using a 405 nm diode laser at 1.00% and detected at wavelengths […]. For each sample, a Z-stack was recorded with an interval of 0.190 μm. […]

B1: FST315dHBS-mFc (Fc fusion)
chain: GNCWLRQAKNGRCQVLYKTELSKEECCSTGRLSTSWTEEDVNDNTLFKWMIFNGGAPNCIPCKETCENVDCGPGSTCVVDQTNNPRCVCAPDCSNITWKGPVCGLDGKTYRNECALLKARCKEQPELEVQYQGRCKKTCRDVFCPGSSTCVVDQTNNAYCVTCNRICPEPASSEQYLCGNDGVTYSSACHLRKATCLLGRSIGLAYEGKCIKAKSCEDIQCTGGKKCLWDFKVGRGRCSLCDELCPDSKSDEPVCASDNATYASECAMKEAACSSGVLLEVKHSGSCNSISEDTEEEEEDEDQDYSFPISSILEWPRGPTIKPCPPCKCPAPNLLGGPSVFIFPPKIKDVLMISLSPIVTCVVVDVSEDDPDVQISWFVNNVEVHTAQTQTHREDYNSTLRVVSALPIQHQDWMSGKEFKCKVNNKDLPAPIERTISKPKGSVRAPQVYVLPPPEEEMTKKQVTLTCMVTDFMPEDIYVEWTNNGKTELNYKNTEPVLDSDGSYFMYSKLRVEKKNWVERNSYSCSVVHEGLHNHHTTKSFSRTPGK
For B1, the “IC50, neutralisation of 1 ng/mL activin A (pSmad2/3 luciferase reporter, HEK293 cells)” value (activin A) was 47 pM, the binding result [1] was “no binding (tested: 50 nM TNFα)” and the “IC50, neutralisation of 1 ng/mL myostatin (pSmad2/3 luciferase reporter, HEK293 cells)” value (myostatin) was 225 pM. The “IC50, neutralisation of 1 ng/mL GDF11 (pSmad2/3 luciferase reporter, HEK293 cells)” value [2] was 205 pM and the binding result [3] was “no binding (tested: 25 nM VEGF)”.

B2: anti-vimentin-nanobody-FSD1 (VHH)
VHH: QVQLVESGGGLVQSGGSLTLTCAASGFTFSAASMRWVRQVPGKGLEWVATIDGTGANSYYSESAKGRFTISRDNARNTLYLQMNNLKPDDTAVYYCANFGRNYWGKGTQVTVSS
modifications: ATTO 488 fluorescent label, sites not stated
notes: also called anti-vimentin-nb-FSD1; type 1 design compound
B2: binds [4]; binds [5].
